Laboratory results taken from article PMC2723105, “DNA binding by Corynebacterium glutamicum TetR-type transcription regulator AmtR”.

Legend:
[1] = molecular target: T1, AmtR-MBP wild type (Corynebacterium glutamicum ATCC13032) (UniProt H7C699); test: EMSA; settings: EMSA: DIG gel shift kit (Roche) conditions, 0.04 ng DNA, native 6% PAGE in 0.5x TBE; SPR: HBS-EP running buffer, 25 °C, BIAcoreX, nonspecific 30-mer DNA in the …
T1 sequence: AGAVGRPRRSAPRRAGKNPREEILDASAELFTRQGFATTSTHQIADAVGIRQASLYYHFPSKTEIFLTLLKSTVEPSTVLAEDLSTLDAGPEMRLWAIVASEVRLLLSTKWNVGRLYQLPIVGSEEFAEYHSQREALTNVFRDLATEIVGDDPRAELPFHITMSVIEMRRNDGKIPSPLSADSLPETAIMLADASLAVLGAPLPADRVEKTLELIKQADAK

AmtR-MBP wild type [2] = molecular target: T2, AmtR-MBP wild type (Corynebacterium glutamicum ATCC13032, UniProt H7C699 2-222); test: EMSA; settings: EMSA: DIG gel shift kit (Roche) conditions, 0.04 ng DNA, native 6% PAGE in 0.5x TBE; SPR: HBS-EP running buffer, 25 °C, BIAcoreX, nonspecific 30-mer DNA in the …
T2 sequence: T1 sequence

AmtR-MBP wild type [3] = molecular target: T2, AmtR-MBP wild type; test: SPR; EMSA: DIG gel shift kit (Roche) conditions, 0.04 ng DNA, native 6% PAGE in 0.5x TBE; SPR: HBS-EP running buffer, 25 °C, BIAcoreX, nonspecific 30-mer DNA in the; settings: protein: recombinant; tags: N-terminal MBP (pMalc2); chain copies: 2; label: 3' biotin on forward strand; blunt

“GCTGGGCTAGAAACCCGATAAGCGAGAACCACCTGTCGGATGTTGTCTGGCAGGTGGTTTTCTTTTGCCTGGGTACCACCAAAAAGCAGCTGTGATGCACTTAACAATTCATTAAATTACCTGTTAAACTATAGAAAATATCCAAAACCCTCCAAAACCTATTCTATAGATCTATTGAAATTAGTTTCTGTAGGTCTATAGTTAGAGCTGGTTCAAGGGGTGTCAATCCCAAAAGGCACTCCTTGAACTCATGAAAAAGCTTGACAAAACTTCAACGTCAAAGGAGGTCATCCACGC (double strand) [amtB promoter PCR fragment]” gave a Kd [1] of 2400 nM.

For “GCCCGTGGTGTGCTCACCAATGATGAAGTCGACGCGCTGACACAGGTGTGGACTTCCGCACTGAGCTTGCAGTCGAAACGTTGGATGGATCACATCCATGATCAAGAAACCACCGCTTGGGAGCTTCCCGCGCTGCAACGTGCCACTTTTGGCGCATCGGCTCGGTTGCTTTCTGAGGTGTTGCGGTCCGTTGAAGCCCGTGAAATCGATACCATAATAGGAACTCTG (double strand) [amtR upstream DNA, additional spacing nucleotide]”, the binding [1] was “binds”.

amtB promoter PCR fragment gave a Kd (AmtR-MBP wild type [2]) of 2400 nM.

B1: amtBp SPR 30-mer (dsDNA)
DNA 1: TAAATTACCTGTTAAACTATAGAAAATATC
DNA 2: GATATTTTCTATAGTTTAACAGGTAATTTA
B1: binds (AmtR-MBP wild type [3]).
